Tests used:
DND1 K196A;NANOS3 ZF+C = DND1 K196A;NANOS3 ZF+C (human;human, UniProt Q8IYX4;P60323 1-230;55-173, K196A|); assay: MST; DND1 titrated, 2 uM NANOS3 ZF+C; MST: 20 mM HEPES pH 7.4, 150 mM NaCl, 1 mM DTT, 0.05% Tween20 and 10 ug/mL yeast tRNA after 1:1 mixing, 5 nM Cy5-RNA, partner 2 uM final, 30 min at room temperature, measured at 25 C; conditions: protein: recombinant;recombinant; tags: His6-SUMO removed by Ulp1;His6-SUMO removed by Ulp1; N-terminal Ser (residue 54) from BamHI site; copies: 1;1; label: 5'-Cy5
Chain of DND1 K196A;NANOS3 ZF+C (Q8IYX4 1-230 K196A, chain 1 of 2): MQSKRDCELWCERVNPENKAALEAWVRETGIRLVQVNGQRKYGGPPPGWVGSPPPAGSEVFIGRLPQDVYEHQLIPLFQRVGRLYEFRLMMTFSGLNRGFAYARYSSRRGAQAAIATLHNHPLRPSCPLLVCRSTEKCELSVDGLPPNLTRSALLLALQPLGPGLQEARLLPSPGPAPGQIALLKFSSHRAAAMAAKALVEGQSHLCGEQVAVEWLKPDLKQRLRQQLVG
Chain of DND1 K196A;NANOS3 ZF+C (P60323 55-173, chain 2 of 2): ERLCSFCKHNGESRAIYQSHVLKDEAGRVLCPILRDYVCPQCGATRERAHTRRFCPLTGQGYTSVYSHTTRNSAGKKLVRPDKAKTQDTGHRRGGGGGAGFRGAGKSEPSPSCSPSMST

DND1 F93A;NANOS3 ZF+C = DND1 F93A;NANOS3 ZF+C (human;human, UniProt Q8IYX4;P60323 1-230;55-173, F93A|); assay: as above; conditions: protein: recombinant;recombinant; tags: His6-SUMO removed by Ulp1;His6-SUMO removed by Ulp1; N-terminal Ser (residue 54) from BamHI site; copies: 1;1; label: 5'-Cy5
Chain of DND1 F93A;NANOS3 ZF+C (Q8IYX4 1-230 F93A, chain 1 of 2): as the sequence (Q8IYX4 1-230 K196A, chain 1 of 2) above, with F93A, A196K counted along it
Chain of DND1 F93A;NANOS3 ZF+C (P60323 55-173, chain 2 of 2): as the sequence (P60323 55-173, chain 2 of 2) above

DND1 H189A;NANOS3 ZF+C = DND1 H189A;NANOS3 ZF+C (human;human, UniProt Q8IYX4;P60323 1-230;55-173, H189A|); assay: as above; conditions: protein: recombinant;recombinant; tags: His6-SUMO removed by Ulp1;His6-SUMO removed by Ulp1; N-terminal Ser (residue 54) from BamHI site; copies: 1;1; label: 5'-Cy5
Chain of DND1 H189A;NANOS3 ZF+C (P60323 55-173, stated change not applied, one chain of several): as the sequence (P60323 55-173, chain 2 of 2) above

DND1 13-230 (del1-12) = biological target: T1, DND1 13-230 (del1-12) (human, UniProt Q8IYX4 13-230, del1-12); assay: MST; MST: 20 mM HEPES pH 7.4, 150 mM NaCl, 1 mM DTT, 0.05% Tween20 and 10 ug/mL yeast tRNA after 1:1 mixing, 5 nM Cy5-RNA, partner 2 uM final, 30 min at room temperature, measured at 25 C; conditions: protein: recombinant; tags: His6-SUMO removed by Ulp1; label: 5'-Cy5
T1 sequence: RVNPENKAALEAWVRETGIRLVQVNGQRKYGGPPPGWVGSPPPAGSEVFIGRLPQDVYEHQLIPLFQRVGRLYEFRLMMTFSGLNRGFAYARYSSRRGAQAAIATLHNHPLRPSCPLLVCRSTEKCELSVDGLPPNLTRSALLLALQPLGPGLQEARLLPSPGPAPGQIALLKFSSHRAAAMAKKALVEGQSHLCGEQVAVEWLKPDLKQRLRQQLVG

[1] = biological target: DND1 13-230 (del1-12);NANOS3 ZF (ZF1-ZF2) (human;human, UniProt Q8IYX4;P60323 13-230;55-113, del1-12|); assay: MST; DND1 titrated, 2 uM NANOS3 ZF; MST: 20 mM HEPES pH 7.4, 150 mM NaCl, 1 mM DTT, 0.05% Tween20 and 10 ug/mL yeast tRNA after 1:1 mixing, 5 nM Cy5-RNA, partner 2 uM final, 30 min at room temperature, measured at 25 C; conditions: protein: recombinant;recombinant; tags: His6-SUMO removed by Ulp1;His6-SUMO removed by Ulp1; N-terminal Ser (residue 54) from BamHI site; copies: 1;1; label: 5'-Cy5
Chain of DND1 13-230 (del1-12);NANOS3 ZF (ZF1-ZF2) (P60323 55-113, stated change not applied, chain 2 of 2, one chain of several): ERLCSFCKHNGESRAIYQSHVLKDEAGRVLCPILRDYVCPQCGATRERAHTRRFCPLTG

[2] = biological target: DND1 1-230 (RRM1-RRM2);NANOS3 ZF+C (human;human, UniProt Q8IYX4;P60323 1-230;55-173, |); assay: MST; DND1 titrated, 2 uM NANOS3 ZF+C; MST: 20 mM HEPES pH 7.4, 150 mM NaCl, 1 mM DTT, 0.05% Tween20 and 10 ug/mL yeast tRNA after 1:1 mixing, 5 nM Cy5-RNA, partner 2 uM final, 30 min at room temperature, measured at 25 C; conditions: protein: recombinant;recombinant; tags: His6-SUMO removed by Ulp1; N-terminal Ser (residue 0) from BamHI site;His6-SUMO removed by Ulp1; N-terminal Ser (residue 54) from BamHI site; copies: 1;1; label: 5'-Cy5
Chain of DND1 1-230 (RRM1-RRM2);NANOS3 ZF+C (P60323 55-173, chain 2 of 2, one chain of several): as the sequence (P60323 55-173, chain 2 of 2) above

DND1 1-230 (RRM1-RRM2) = biological target: T2, DND1 1-230 (RRM1-RRM2) (human, UniProt Q8IYX4 1-230); assay: MST; MST: 20 mM HEPES pH 7.4, 150 mM NaCl, 1 mM DTT, 0.05% Tween20 and 10 ug/mL yeast tRNA after 1:1 mixing, 5 nM Cy5-RNA, partner 2 uM final, 30 min at room temperature, measured at 25 C; conditions: protein: recombinant; tags: His6-SUMO removed by Ulp1; N-terminal Ser (residue 0) from BamHI site; label: 5'-Cy5
T2 sequence: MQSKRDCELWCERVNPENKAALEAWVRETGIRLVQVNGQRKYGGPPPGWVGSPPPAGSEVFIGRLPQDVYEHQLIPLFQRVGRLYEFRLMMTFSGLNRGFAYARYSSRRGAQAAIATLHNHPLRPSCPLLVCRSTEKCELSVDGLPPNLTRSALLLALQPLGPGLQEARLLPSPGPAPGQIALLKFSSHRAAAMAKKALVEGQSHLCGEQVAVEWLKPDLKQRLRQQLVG

| Binder | Kd (DND1 K196A;NANOS3 ZF+C) [µM] | Kd [2] [µM] | Kd (DND1 1-230 (RRM1-RRM2)) [µM] | other results |
| --- | --- | --- | --- | --- |
| AUAUUAAUUU (ssRNA) [G3U] | 0.13 ± 0.02 | – | – | – |
| AUAUCAAUUU (ssRNA) [G3C] | 0.31 ± 0.09 | – | – | – |
| AUAUAAAUUU (ssRNA) [G3A] | 0.17 ± 0.04 | – | – | – |
| AUAUGAAUUU (ssRNA) [CDK1 N3-DRE (Cy5)] | – | – | – | Kd (DND1 F93A;NANOS3 ZF+C): 1.1 ± 0.4 µM; Kd (DND1 H189A;NANOS3 ZF+C): 0.16 ± 0.05 µM; Kd (DND1 13-230 (del1-12)): 3.7 ± 1.4 µM; Kd [1]: 4 ± 2.4 µM |
| AUGCCAAUUU (ssRNA) [D1mut] | – | 15 ± 7.7 | 15 ± 4.7 | – |
| AUAUGACUCU (ssRNA) [N3mut] | – | 2.7 ± 1.1 | 6.4 ± 3.8 | – |
| AUGCCACUCU (ssRNA) [D1-N3mut] | – | 12 ± 3 | 11 ± 2.1 | – |
| AUAUGACCCAUUU (ssRNA) [spacer] | – | – | 8.2 ± 3.6 | – |

From publication doi:10.1101/2025.09.25.678639, “The DND1–NANOS3 complex shapes the primordial germ cell transcriptome via a heptanucleotide sequence in mRNA 3′ UTRs”
